The results in this text go back to the domain aggregation screens of Martell et al. (2025).

A short description of this series: soluble fraction after stress (log2 fold change); higher = more stays soluble; pooled small domains, quantitative proteomics. As to conditions: stress: pH 4. The method, boiled down: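 Pooled custom libraries of small protein domains were stressed at pH 4 and then measured by high-throughput quantitative proteomics. The fold change in the amount of each domain that stays soluble after the acid stress serves as a measure of aggregation propensity. Fold changes are given on a log2 scale, and higher values mean more of the domain stayed soluble.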

Turning to “HMDDSPTARALRTLDLIHNRPGITAAELADRLGVTERAVRRYVLTLRDAGVPVLGTPGRYGGYQVGK”, the “soluble fraction (log2)” value was -0.0455.
For “HMDDSVTFSEFVRMVDSGQVESVRITGNEVTGSDSTGNTFRTFVPPQYEGLVNRLVERDVAVTAEE” the value was -0.284; for “HMDDSVVFSLNAKGIRLTGAGKYGEAIALFDKAIAAKPGLSGLYFNRAEARRLSGDLPGARSDLEQALAI”, -0.113.
Turning to “HMDDTRLELTLLGKIHNDEEINKQSHINVNIKNGVILLTGESPRREITERILTLARTFEHTRQIVNQIAT”, the “soluble fraction (log2)” value is -0.515.
For “HMDDVIDVYATYDKSAEGVLSNIQLFSNQKKTTPITPESGKIYIDVEGNYQFRWTGTQYATV” the value was -0.09; for “HMDDYRSLRGQEKAAIFLMSLSQEQAAKIFANLDDEEIKEISQAMSSLGTVGSEIIERLFVEFAEQVSS”, -1.08.
The same measure for “HMDEARLAVASNLIRLRTDAGMTQAELGEKLNYSDKTISKWERAEAIPDAFVLKQIGELFHVSVDFLLRTH”: 0.1.
For “HMDEDTWKLYKRAYKKYYARYMKGNMSEEAFKTWAAQAARDRDAAIEQVKAALDENLKAQVIERLKEELNR” the value was 0.22; for “HMDEEEKGEVEVPNLIGLTRKEAKKTLEEEGLLIETKESLKTNLDDEYEKIKSQLPKAGIKIKQGSTVYVD”, 0.183; for “HMDEGQEHYVKETDLPFYSEADPASSVIFPLVLNQKLIEKERKDDWIRALEPTTGLVGWVLLKSLSPQQLS”, -1.59.
In the case of “HMDEIELLLQDAIQKLPEKQRMVFTLRYYDNLPYEEISKILDMSVSTLKTNYHYAKSKIEQYILDHS”, the “soluble fraction (log2)” value was -0.839.
For “HMDEKPPHEALSNREFQVLQLLAQGRSVGQIAQQLTLSANTISTYRARIFDKLGLHNPADLFSYAARHRLT” the value was 0.111; for “HMDELNFGNFEGTRIFVQRTARKKSIALSIRDGTIVILAPRHIPNQEIQELITTNTDWIRAKLSQHAETKR”, -0.264; for “HMDELVYVPNITGKTVEEARTELQKRDLGLNIAGHQFSDEFGKGRIISQDPAAGSRLKVNRSISVIVSSGQ”, 0.00524.
The same measure for “HMDENVVLRKVAREAFVIEYVRGIRAIDPGIGGPKLWLMYKREFGDNDTVGRDTFEDILDRNNLKVRI”: -0.363; for “HMDEPADVAIFDGFRQMSEDELKKLYESLNLAMTFKDFLHIQNYFKNEENREPSVTEIRVLDTYWSDH”: -0.321; for “HMDEPVDRLSPREQEVLALMAEGRSNAAIAHRLSITEKAVAKHINSIFTKLDLPLDEDDHRRVRAVLAWLR”: -0.464.
“HMDESIPVITYKDSVYANPKAFADAHKLPYKSLHNALSKARKEGKVRFMYKQYNFHLDNNGYIVAVS”: the “soluble fraction (log2)” value is -0.195.
Regarding “HMDESLLDYALREIKARIQNGTYPPGTKLSTQEISDSLGISRTPVVAAINRLVAQGVAEAIPRRGTIVAR”, the “soluble fraction (log2)” value stood at 0.015.
“HMDETFTITFDPNGGTLNGSKTKTVSLGDIVYGKLPTASKTGYSFIGWFTEKEGGEQISSATKIIASDLTL”: the “soluble fraction (log2)” value was -0.204.
For “HMDETPESIFAKANELYPKYIKYFYTEQEYYSKVEEYINLYEFQKNSTYILGKDLEEFLEEYITNKQ”, the “soluble fraction (log2)” value was -1.51.
For the sequence “HMDEWDDGDKPKLKITLYADDDYYFASGFSKSSVSLSGSDGTVTSVSRSSSDTLIVYVTLDALD”, the “soluble fraction (log2)” value is -0.845.
The same measure for “HMDEYILTLDEVKELLKSKDYDDLKNVLKWSNKFQKDTIIQTAISEKVSDANVINIIKEITGQDITSLIV”: -1.12.
The same measure for “HMDEYTREQFVADMEEGRVREVTIHPNSEVPTGYIRVELANGADMKLYVTDIVEAEELVRSYGFDPPVRDV”: -0.56; for “HMDFDFHALGREIKRKRKDKGWTQEYLAQLLDRTPRSIMYMENRGQHPSLNILFKIATLLEISIDQFFF”: 0.158.
The same measure for “HMDFDQELFDKIVEATMDEARAAMDTDDKNVREERWNKLIEHWHELFLEDYPEMDKYLEEITYKFQKNPAT”: -1.23.
For “HMDFEVGTVKWFNTKKGYGFITRDQGEDIFVHFRNIKGQGRRSLSDGERVSFVVTHGDKGLQADQVSP”, the “soluble fraction (log2)” value was -1.18.
The same measure for “HMDFFTAAPEEDEIGKRIDVYIAEYKEELSRSRVQKLIENGLVTVNGKAVKSNYKLRKGDILEVEIPDPE”: -0.00543; for “HMDFGPDSAAPLADGSAPEGFDVKGNADSMLYHEPDGRWYDATVAEVWFRTAEAAQAAGFTKAGS”: -2.02; for “HMDFNNQLKRIRESNGLTQEQLAKILNVSRQSISSWEVGRNFPDLEMIVIISKEFNISLDQLIMG”: -1.03.
Regarding “HMDFQTDVFISRFAELKKESGETNKDLQDVFELSLSALINYQTGKRIPDIAFLHKLAQHFGVSADYLLGLS”, the “soluble fraction (log2)” value is -0.6.
As to “HMDFRQALNTSADSDANKVALLESIVKGKYVSSTVNLLRRVITLRRGRSIDATLAAYSHYVSIR”, the “soluble fraction (log2)” value stood at 0.385.
The same measure for “HMDFSVTIKGTSFPVMVSLKKMKQVRLKVFPSGEIKLSAPVGTPEKWIVEYLNDKMSWIEEKMDLFVQ”: -0.395; for “HMDFTMSEIQTAMAALPRGYRTVVQLYLVDGYSHKEIAEMLGVDVNTSKSQLSRGRKQLQAFLAAMS”: -0.602; for “HMDFYIVLGVDRAASVSDVKRAYRRLARKYHPDINPGDREAEAFFLRVTEAYETLIDPDRRQDYDVNG”: -1.31.
For “HMDFYPARVKWFNKSKGFGFANIFKSNDDIFLHIETLKRSGLSDLETGEAIVLTVTEGPRGKMADTILTWD” the value was -0.411; for “HMDGDFGMNLDWQPSEHFPTLARQAGIPADHITAEAIAEFRSYWIGQGKAMTQYQWDHKLLTNLKATKTR”, 0.106; for “HMDGEAQTYVEYGKWFPADLPLEAVRQLADGVPVTKELVAALNPRRSEWEEIKAGLDKIGYPNELL”, -0.567.
The same measure for “HMDGEITLYKVVGYIKASDFDDKKNGFVIADDYITKRQAEDTMYEWKRKKTYPYLEIKEYKGKDPYK”: -0.0464.
As for “HMDGLAEQLFNILREELESGDYKPGQKLMSESALAQKYGVSRLTVRAAIARLSALDYVETRNGEGSFVKKR”, the “soluble fraction (log2)” value is -0.0881.
The same measure for “HMDGLDFIINENGKIANINEEGELLAKGENIMLGYYKDSISTNNTINNGWLHTGDIAKIDNDGFIYL”: -0.123; for “HMDGMNEELYQKFFALVGNPDEGKRISQAKAAQALGYSSAVVSAYKNRTYNGNIKAFEDAVQAWLKREERR”: 0.141.
The same measure for “HMDGPELYESMKAIVPDQLDRTIFLTGGAYTPRAQEFLARVPNQQMEKPFEFEALRSLLARLT”: -0.199.
Take “HMDGTEVTTEPPGAQVEYEGKQFGPTPARIPGLVAGKSLHITLPGYLEVKPKIKAVPKDGEPLSFTLTAI”: the “soluble fraction (log2)” value stood at 0.224.
With “HMDGVEVVTKPAGAQIEFAGKSYGPSPVHIPGLVAGSQLILRLPGFQAATVRLRTAPDKSKALEYTLQPA”, the “soluble fraction (log2)” value is -0.0155.
For “HMDGVLVYKEGMTVADMATGLGKTIAQVVMKLMQLGIMANQNQSVDRETVELVALDFGYELKD” the value was -1.39; for “HMDGVSAEAVKSHIKTLIDGEGAKILSDDTLVDLLNAKGFDIARRTVAKYREAMGIGSSVQRRRQKKMG”, -0.0273; for “HMDGYLQLASKKNELITQLKTPPKPKRLFKDFEDRVYLITEYKVFVVSIFQNEFRLRPVNKDDFYRYTT”, -0.134.
Turning to “HMDGYTAVDKAVSDQYYTKENQLYFVSMGNFFSLGAKKIEGADISSFQILTTEYARDLQHLYFNGKV”, the “soluble fraction (log2)” value is -0.367.
The same measure for “HMDHFFSKYDSIVNHTVQKKETLFGISKKYGLTINEVIKFNPGIQIDKLKRRSVLIIPLMKKN”: -0.0453; for “HMDHKSALQELLAPRGLQPSYRLVEEAGPAHARVFTSEVSVDGVARGSGTGTTIKMSEQAAAREALASLG”: 0.318; for “HMDHKSQLQEWAQSTLGETPRYVTIAETGPDHDKELTVELIIGRKSYSIAKGKSKKQAEQSAARIALGLLM”: -0.504.
As to “HMDHKSSYWSVKEANLFPELLKQFGSQWSLISDKLGTKSTTMVRNYYQRNAAQLGWKSVVEEADFKRNA”, the “soluble fraction (log2)” value amounted to 0.0284.
For the sequence “HMDHTYKHIELTGSSEKGIEEAVQNALAKASESVQNMRWLEVTDTRGHIEDGRVAHWQVTVKVGFTL”, the “soluble fraction (log2)” value was found to be 0.22.
For “HMDHVEDRMVLEVVLKKLTEEERRIVMLHAVSGLKHREIAKALDIPLSTVLSKYKRTLKKLEAYLMEME” the value was -0.936; for “HMDIADKLTKREFEIFIAIAMNKSRFDIANELGLSAKTVSNGLTVIKRKLNAVPSQFSAIAAKHGYIG”, -0.408; for “HMDIAYFSNAELNDAFIQFLNMRQEAGKQLNGYQIQILTEKLERVADTDEDRISAVKNAIAGGWSNFYPPK”, -0.366.
As for “HMDIDASEVRGIISQYINEPDGRVSYILETIQKKYRYLPEEAIRIVAQELEVPLTQLFGVATFYAAFSL”, the “soluble fraction (log2)” value was 0.0192.
For “HMDIDLNTIKKITLDDIHAFLSYLTTTYHSKAATRARKASSIRVFFNYLSAKANLIEVNPAQNLETPKLD” the value was 0.0886; for “HMDIEELLSRSTDRLSRQTEIRRLLADAQGRPNISSLARRFKVARRTVIRDLQELIRRGEVPPEIYPK”, -0.0624; for “HMDIEFSDELRTFIDEWSKKEGGLVMMLHRIQNEYGFIPRTAAEKLSLISGIPLARIYGVITFYHFFKT”, -1.01.
For “HMDIGNKIKELRTEQKMTQSDLAERLGVTKSSISSYENGSRLPSYDILLKIARIFKVSTDILLG” the value was -0.637; for “HMDIGTRQRIIAAAMELFRQKGMDGMSMRELAERAGVNKGLLHYYFTTKEAIFREVFVHQVEM”, -0.0208; for “HMDIIIEEGIDESLSTDDAILDLLGRASDAFSNAQKALLEGDLGSYQKLIEQAERLVKKATELLGENN”, -1.1.
The same measure for “HMDIMNNILINRIKKILTEQNMSKADLSRLTGISNSSLSEYLNGKYEPKQDKIALIAKALHVSPAWLMGF”: 0.166.
Regarding “HMDINNTNFSRDVDNLLQNEEFIKWRIFRTKEWEDYWENFRKENPHMEDALQEAISRFNAVK”, the “soluble fraction (log2)” value was -0.736.
Turning to “HMDINVDILPLLKTMTDTLRKVIELDIPFLKDARVQRVNSLDELLLRADITTAEKFRKVFEAYQIEADFGK”, the “soluble fraction (log2)” value is -1.05.
“HMDIPDIGHNVRIEVDGHNGKTTHEGIILHPAAPNHITIKLANGYNASYKLEEIINIEILGELGDDSKI”: the “soluble fraction (log2)” value was -0.863.
